Data reported in US7267978, “Chimeric transcriptional regulatory element compositions and methods for increasing prostate-targeted gene expression” (The Regents of the University of California).

Assays:
[1] = molecular target: Androgen receptor full length (fAR) (UniProt P10275); experiment: footprint; settings: 60% protection at 14 nM; cooperative, within enhancer fragment
[2] = molecular target: Androgen receptor DNA-binding domain (ARDBD, aa 549-650) (Homo sapiens) (UniProt P10275); experiment: footprint; settings: 75% occupancy at 1.4 uM
[3] = molecular target: T1, Androgen receptor DNA-binding domain (ARDBD, aa 549-650) (Homo sapiens, UniProt P10275 P10275:550-651); experiment: footprint; lower affinity than ARE III; settings: tags: N-terminal His6, C-terminal heart muscle kinase site; E. coli; chain copies: 2
Method: The binding reactions for DNase I footprinting were as described previously (Chi et al., 1995). Indicated amounts of recombinant AR DNA binding domain (ARDBD), FLAG-tagged AR, and crude nuclear extracts from f-LNCaP cells were incubated in 13 μl of buffer containing 12.5 mM HEPES, pH 7.9, 12.5% glycerol, 5 mM MgCl_2, 70 mM KCl, 0.2 mM EDTA, 60 mM mercaptoethanol, 0.5 mg/ml bovine serum albumin, and 200 ng of poly(dG-dC). After 45 min at 30° C., DNase I was added to the reactions. The cleavage reactions were terminated after 1 min by addition of 100 μl of stop buffer containing 400 mM sodium acetate, pH 5.2, 0.2% SDS, 10 mM EDTA, 50 μg/ml yeast tRNA, and 100 μg/ml proteinase K. The mixtures were incubated at 50° C. for 15 min, extracted with phenol/chloroform, and the products precipitated with ethanol. Precipitates were dissolved in formamide loading buffer and analyzed on 8% polyacrylamide/urea sequencing gels. The cleavage ladders were visualized by exposure to XAR-5 film or by PhosphorImager analysis.
A ^32P-labeled PCR™ fragment from −4309 to −4011 of the enhancer was subjected to DNase I footprinting studies. […] A weak footprint was also noticed below site V that had not been detected with ARDBD in earlier experiments.

[4] = molecular target: T1, Androgen receptor DNA-binding domain …; experiment: affinity column; retained at 0.5 M KCl, eluted at 0.8 M KCl; settings: tags: N-terminal His6, C-terminal heart muscle kinase site; E. coli; chain copies: 2; label: biotin
Method: The *Escherichia coli* strain BL21(DE3) was transformed with pET11dHis_6ARDBD. 0.1 liter of cells was grown to an $A600$ of 0.6 and induced with 0.5 mM isopropyl-1-thio-β-D-galactopyranoside and 10 μM ZnCl_2 for 3 h. After harvesting, cells were resuspended in 5 ml of Buffer A (20 mM HEPES, pH 7.9, 20% glycerol, 10 μM ZnCl_2, 0.5 mM phenylmethylsulfonyl fluoride) containing 0.1 M KCl and lysed by sonication. The supernatant was incubated with 1.5 ml of Ni-NTA-agarose (Qiagen) resin in batch, rocked gently for 30 min at 4° C., and then loaded on to a small Bio-Rad Econo-column. After successively washing the resin with 15 ml of Buffer A containing 0.1 M KCl, and 15 ml of Buffer A containing 0.1 M KCl and 20 mM imidazole, ARDBD was eluted with Buffer A containing 0.1 M KCl and 150 mM imidazole. […]

T1 sequence (P10275 550-651, one chain of several): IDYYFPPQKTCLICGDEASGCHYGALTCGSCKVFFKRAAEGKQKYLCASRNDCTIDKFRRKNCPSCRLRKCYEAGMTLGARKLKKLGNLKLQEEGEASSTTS
Chain of Androgen receptor full length (fAR) (P10275 whole entry, the tested form may be a part): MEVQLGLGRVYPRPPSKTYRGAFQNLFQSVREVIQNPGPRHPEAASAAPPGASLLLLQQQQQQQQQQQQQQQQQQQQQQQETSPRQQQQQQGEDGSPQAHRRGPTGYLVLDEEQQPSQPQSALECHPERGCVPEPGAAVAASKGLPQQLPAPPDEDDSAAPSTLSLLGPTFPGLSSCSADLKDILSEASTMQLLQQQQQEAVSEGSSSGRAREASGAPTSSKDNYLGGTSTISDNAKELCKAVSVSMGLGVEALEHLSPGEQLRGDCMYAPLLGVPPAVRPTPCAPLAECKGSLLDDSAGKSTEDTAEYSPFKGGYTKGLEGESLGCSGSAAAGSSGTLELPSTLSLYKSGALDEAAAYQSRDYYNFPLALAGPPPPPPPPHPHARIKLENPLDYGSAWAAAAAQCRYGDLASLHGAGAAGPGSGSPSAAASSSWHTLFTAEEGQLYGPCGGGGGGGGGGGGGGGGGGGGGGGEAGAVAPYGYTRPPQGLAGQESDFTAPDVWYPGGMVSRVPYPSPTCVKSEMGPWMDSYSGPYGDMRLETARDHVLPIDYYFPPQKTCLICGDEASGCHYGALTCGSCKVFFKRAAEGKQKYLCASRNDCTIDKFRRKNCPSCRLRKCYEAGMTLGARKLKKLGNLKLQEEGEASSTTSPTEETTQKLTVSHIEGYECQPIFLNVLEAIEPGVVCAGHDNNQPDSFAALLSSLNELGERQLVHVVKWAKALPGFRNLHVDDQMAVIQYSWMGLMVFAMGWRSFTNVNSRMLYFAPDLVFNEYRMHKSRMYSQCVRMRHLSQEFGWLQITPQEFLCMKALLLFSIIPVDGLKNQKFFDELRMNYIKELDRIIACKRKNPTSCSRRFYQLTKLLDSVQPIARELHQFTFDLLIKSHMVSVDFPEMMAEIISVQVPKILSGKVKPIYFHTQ
Chain of Androgen receptor DNA-binding domain (ARDBD, aa 549-650) (Homo sapiens) (P10275 550-651): as the sequence (P10275 550-651, one chain of several) above

Work on PSA enhancer ARE IV yielded a K half [1] of under 14 nM.

PSA enhancer ARE V gave a K half [1] of under 14 nM and a K half [2] of under 1400 nM.

B1: PSA enhancer ARE VI (dsDNA)
DNA 1: GGATGCTGTGCACAC
DNA 2: GTGTGCACAGCATCC
B1: binds [3].

B2: biotinylated ARE affinity oligonucleotide (dsDNA)
DNA 1: TTTCCTTGCAGTACAGCATGTTCTAGC
DNA 2: GCTAGAACATGCTGTACTGCAAGGAAA
B2: binds [4].
